Data from article PMC6113224, “Structural basis of cell wall peptidoglycan amidation by the GatD/MurT complex of Staphylococcus aureus” (Scientific Reports, 2018).

Target: T1, GatD (glutamine amidotransferase-like protein GatD of Staphylococcus aureus) (Staphylococcus aureus, UniProt A0A0H2WZ38 1-243)
T1 construct: GatD, glutamine amidotransferase-like subunit of the GatD/MurT Lipid II amidation complex, Staphylococcus aureus; full length; source: E. coli BL21, co-expressed with MurT from pET21b (gatD/murT operon), purified (Ni-NTA, two rounds of SEC)
T1 sequence (looked up): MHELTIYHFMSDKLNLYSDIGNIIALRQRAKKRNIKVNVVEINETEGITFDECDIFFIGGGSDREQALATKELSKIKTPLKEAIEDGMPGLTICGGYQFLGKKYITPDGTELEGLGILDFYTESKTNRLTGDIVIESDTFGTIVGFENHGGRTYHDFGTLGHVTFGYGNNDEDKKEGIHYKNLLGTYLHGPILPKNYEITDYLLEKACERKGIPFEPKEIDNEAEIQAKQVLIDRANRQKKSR
Assay: SAXS; two-fold dilution series 0.5 to 8 mg/mL of GatD/MurT in SEC II buffer, extrapolated to zero concentration; beamline P12, DESY
Conditions: both partners purified

B1: MurT (Mur ligase homolog MurT of Staphylococcus aureus) (enzyme, UniProt A0A0H2WZQ7 1-437, looked up)
chain: MRQWTAIHLAKLARKASRAVGKRGTDLPGQIARKVDTDILRKLAEQVDDIVFISGTNGKTTTSNLIGHTLKANNIQIIHNNEGANMAAGITSAFIMQSTPKTKIAVIEIDEGSIPRVLKEVTPSMMVFTNFFRDQMDRFGEIDIMVNNIAETISNKGIKLLLNADDPFVSRLKIASDTIVYYGMKAHAHEFEQSTMNESRYCPNCGRLLQYDYIHYNQIGHYHCQCGFKREQAKYEISSFDVAPFLYLNINDEKYDMKIAGDFNAYNALAAYTVLRELGLNEQTIKNGFETYTSDNGRMQYFKKERKEAMINLAKNPAGMNASLSVGEQLEGEKVYVISLNDNAADGRDTSWIYDADFEKLSKQQIEAIIVTGTRAEELQLRLKLAEVEVPIIVERDIYKATAKTMDYKGFTVAIPNYTSLAPMLEQLNRSFEGGQS
notes: MurT, Mur ligase homolog subunit of the GatD/MurT Lipid II amidation complex, Staphylococcus aureus; full length, untagged; MurT residues 1-35, 195-196 and 434-437 are not seen in the crystal structure
  stoichiometry N: 1
